# Test results reported in paper PMC2955587, “Novel β-N-acetylglucosaminidases from Vibrio harveyi 650: Cloning, expression, enzymatic properties, and subsite identification” (BMC Biochemistry, 2010).
# Assays:
# [1] = test system: CC(=O)N[C@H]1[C@H](Oc2ccc([N+](=O)[O-])cc2)O[C@H](CO)[C@@H](O)[C@@H]1O; assay: purified protein; conditions: 0.1 M phosphate pH 7.0, 37°C, 0-500 μM substrate, enzyme unstable
# From the text: initial rates, reducing sugar (DNS) assay, nonlinear regression on VhNag1
# [2] = substrate: CC(=O)N[C@H]1[C@H](Oc2ccc([N+](=O)[O-])cc2)O[C@H](CO)[C@@H](O)[C@@H]1O; assay: initial rates, reducing sugar (DNS) assay, nonlinear regression; assay type: biochemical, Vibrio harveyi; conditions: 0.1 M phosphate pH 7.0, 37°C, 0-500 μM substrate
# From the text: initial rates, reducing sugar (DNS) assay, nonlinear regression on VhNag2
molecule,measurement,setting,value
VhNag1 (Vibrio harveyi),Km,[1],172 ± 48 µM
same,kcat,[1],0.08 s⁻¹
same,kcat/Km,[1],465 M⁻¹ s⁻¹
"VhNag2 (Vibrio harveyi) (protein, full-length, 1,926 bp, 73,143 Da, C-terminal His6 (pQE60), E. coli M15, Ni-NTA; no signal peptide predicted) EYRVDLVVLSEQKQNCRFGLTFHNLSDQDLNSWGLTFAFDRYILPDSVSNGQLTQIGSFCTLKPEGIVLAANHHYYCEFSIGSNPFRYYSDGFNEAMIDFVVDGQPQRAQVDVTPIVLASPYRERSDIPASLTHAQPLLPKPNHIEVSDHSFTFDEQAGVAIYTDLANSAKAWLLEELQRIHQFTLSSSNSGKIIFKSNPTLDEGAYKLKVSEESIKIEAGSSSGFTHACATLLQLLKRDEATKTMEAVCCSIIDSPRFRYRGMMLDCARHFHSVEQVKRLINLLAHYKLNTFHWHLTDDEGWRVEIKSLPQLTEIGAWRGIDETIEPQYTHLSQRYGGFYTQEEIRDVIAFAEQRGITIIPEIDVPGHCRAAIKSLPHLLIEAEDTTEYRSIQHYNDNVINPALPGSYEFIDKVLEEIAALFPAPYVHIGADEVPNGVWSKSPACQALMEQLGYTDYKELQGHFLRHAEDKLRKLGKRMLGWEEAQHGNKVSKDTVIYSWLSEEAALNCARQGFDVVLQPAQTTYLDMTQDYAPEEPGVDWANPLPLEKAYNYEPLAEVPADDPIRKRIWGIQTALWCEIINNPSRMDYMIFPRLTAMAEACWTEKQHRDWTDYLSRLKGHLPLLDLQGVNYRKPWK",Km,[2],77 ± 17 µM
same,kcat,[2],0.38 s⁻¹
same,kcat/Km,[2],4940 M⁻¹ s⁻¹
